Blank lines part the entries; values can stand above or below the molecule they belong to.
How the values were obtained:
αS1-casein (Bos taurus) = αS1-casein (Bos taurus) (UniProt P02662); test: SPR; details: cited from earlier work
[1] = molecular target: T1, Toll-like receptor 4 (TLR4) (UniProt O00206 24-839); test: cell-based or functional assay
[2] = molecular target: the molecule itself; test: MST; FITC-αS1-casein (25 nM) mixed with unlabelled αS1-casein in serial dilution; sonicated 15 min, incubated 1 h at 37 °C; 20 mM HEPES pH 7.2, 0.5% BSA, 0.0025% Tween-20; oligomer step not resolved
[3] = molecular target: the molecule itself; test: SPR; αS1-casein or P-αS1-casein immobilised on a CMDP-5 chip (450 µRIU); the same protein injected at 0.625 to 5 µM in 10 mM HEPES, 150 mM NaCl, pH 7.2 (5 min, 5 µL/min); KD could be due to a mixture of dimer, tetramer and higher oligomer
[4] = molecular target: Toll-like receptor 4 (TLR4) (UniProt O00206)
[5] = molecular target: T1, Toll-like receptor 4 (TLR4); test: flow cytometry on cells; TLR4+ cells (HEK293 transfected with TLR4/MD2/CD14) and TLR4- cells incubated 24 h with 500 nM αS1-casein or a truncated variant; detected with murine anti-His6 IgG and Dylight633 anti-murine IgG; details: one partner purified

T1 sequence (O00206 24-839): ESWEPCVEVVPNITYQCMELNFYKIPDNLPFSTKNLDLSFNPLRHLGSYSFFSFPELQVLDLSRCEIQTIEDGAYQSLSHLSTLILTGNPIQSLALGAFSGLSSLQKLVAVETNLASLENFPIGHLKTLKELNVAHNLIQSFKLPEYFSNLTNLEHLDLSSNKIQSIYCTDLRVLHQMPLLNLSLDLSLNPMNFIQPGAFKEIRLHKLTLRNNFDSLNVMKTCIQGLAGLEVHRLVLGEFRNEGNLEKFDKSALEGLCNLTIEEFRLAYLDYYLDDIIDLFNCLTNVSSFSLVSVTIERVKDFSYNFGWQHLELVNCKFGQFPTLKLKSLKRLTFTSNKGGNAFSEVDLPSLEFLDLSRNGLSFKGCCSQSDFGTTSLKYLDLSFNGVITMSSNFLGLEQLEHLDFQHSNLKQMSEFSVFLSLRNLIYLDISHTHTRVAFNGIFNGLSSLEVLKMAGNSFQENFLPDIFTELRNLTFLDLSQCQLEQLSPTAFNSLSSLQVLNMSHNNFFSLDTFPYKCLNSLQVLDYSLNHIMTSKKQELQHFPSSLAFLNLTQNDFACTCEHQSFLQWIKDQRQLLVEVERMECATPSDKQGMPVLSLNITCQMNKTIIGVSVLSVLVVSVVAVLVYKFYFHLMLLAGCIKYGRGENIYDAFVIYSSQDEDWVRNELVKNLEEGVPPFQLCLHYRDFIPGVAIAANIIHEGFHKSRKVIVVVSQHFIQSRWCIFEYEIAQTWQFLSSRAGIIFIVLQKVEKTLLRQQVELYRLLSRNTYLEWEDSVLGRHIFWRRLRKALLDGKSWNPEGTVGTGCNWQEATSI
Toll-like receptor 4 (TLR4) (UniProt O00206), sequence (O00206 24-839): as above
αS1-casein (Bos taurus), sequence (P02662 16-214): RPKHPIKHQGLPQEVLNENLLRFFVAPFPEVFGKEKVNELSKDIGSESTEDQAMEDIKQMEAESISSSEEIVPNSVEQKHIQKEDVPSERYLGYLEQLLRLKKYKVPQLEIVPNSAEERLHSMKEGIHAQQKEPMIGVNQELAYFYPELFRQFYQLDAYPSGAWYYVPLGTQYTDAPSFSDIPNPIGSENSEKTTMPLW

Molecule: αS1-casein (from UniProt P02662)
Kd (αS1-casein (Bos taurus)): 2000 nM

B1: αS1-casein truncated variant N4 (domain or fragment, human, UniProt P47710 93-185, looked up)
chain: EMSLSKCAEQFCRLNEYNQLQLQAAHAQEQIRRMNENSHVQVPFQQLNQLAAYPYAVWYYPQIMQYVPFPPFSDISNPTAHENYEKNNVMLQW
IL-8 secretion of TLR4+ cells after 24 h with 15 nM protein (sandwich ELISA) [1]: -2.5 ng/mL

B3: in vitro phosphorylated αS1-casein (P-αS1-casein) (natural protein, human, UniProt P47710 16-185, looked up)
chain: RPKLPLRYPERLQNPSESSEPIPLESREEYMNGMNRQRNILREKQTDEIKDTRNESTQNCVVAEPEKMESSISSSSEEMSLSKCAEQFCRLNEYNQLQLQAAHAQEQIRRMNENSHVQVPFQQLNQLAAYPYAVWYYPQIMQYVPFPPFSDISNPTAHENYEKNNVMLQW
modifications: phosphorylated in vitro; the sites of this preparation are not stated
notes: human αS1-casein (CSN1S1), the recombinant protein of m1 after in vitro phosphorylation; source: phosphorylated in vitro
Kd [3]: 500 nM

B5: αS1-casein truncated variant N1 (domain or fragment, human, UniProt P47710 35-185, looked up)
chain: EPIPLESREEYMNGMNRQRNILREKQTDEIKDTRNESTQNCVVAEPEKMESSISSSSEEMSLSKCAEQFCRLNEYNQLQLQAAHAQEQIRRMNENSHVQVPFQQLNQLAAYPYAVWYYPQIMQYVPFPPFSDISNPTAHENYEKNNVMLQW
IL-8 secretion of TLR4+ cells after 24 h with 15 nM protein (sandwich ELISA) [1]: 7.5 ng/mL

Now from value to molecule, other results behind:

IL-8 secretion of TLR4+ cells after 24 h with 15 nM protein (sandwich ELISA) [1]: 23.3 ng/mL
B2: recombinant human αS1-casein (natural protein, UniProt P47710 16-185, looked up)
chain: RPKLPLRYPERLQNPSESSEPIPLESREEYMNGMNRQRNILREKQTDEIKDTRNESTQNCVVAEPEKMESSISSSSEEMSLSKCAEQFCRLNEYNQLQLQAAHAQEQIRRMNENSHVQVPFQQLNQLAAYPYAVWYYPQIMQYVPFPPFSDISNPTAHENYEKNNVMLQW
notes: human αS1-casein (CSN1S1), from plasmid pET TS001; C1 and C2, made from the same plasmid, begin at residue 16 and N1-N4 end at 185, so it probably lacks the signal peptide (1-15); Not phosphorylated (made in E. coli); also called full-length αS1-casein; full-size αS1-casein; source: E. coli, purified (NTA column chromatography); not shown: His6, N-terminal, kept
Kd [2]: 2200 nM
Kd [3]: 2000 nM
stoichiometry N [3]: 4

IL-8 secretion of TLR4+ cells after 24 h with 1.5 µM peptide (sandwich ELISA) [4]: 0.95 ng/mL
B4: synthetic peptide V77-E92 of αS1-casein (peptide)
peptide: VAEPEKMESSISSSSE

IL-8 secretion of TLR4+ cells after 24 h with 15 nM protein (sandwich ELISA) [1]: 4.8 ng/mL
B6: αS1-casein truncated variant N2 (domain or fragment, human, UniProt P47710 57-185, looked up)
chain: REKQTDEIKDTRNESTQNCVVAEPEKMESSISSSSEEMSLSKCAEQFCRLNEYNQLQLQAAHAQEQIRRMNENSHVQVPFQQLNQLAAYPYAVWYYPQIMQYVPFPPFSDISNPTAHENYEKNNVMLQW

IL-8 secretion of TLR4+ cells after 24 h with 15 nM protein (sandwich ELISA) [1]: 5.2 ng/mL
fluorescence intensity on TLR4+ cells over TLR4- cells (fold) [5]: 2.3 fold
B7: αS1-casein truncated variant C1 (domain or fragment, human, UniProt P47710 16-163, looked up)
chain: RPKLPLRYPERLQNPSESSEPIPLESREEYMNGMNRQRNILREKQTDEIKDTRNESTQNCVVAEPEKMESSISSSSEEMSLSKCAEQFCRLNEYNQLQLQAAHAQEQIRRMNENSHVQVPFQQLNQLAAYPYAVWYYPQIMQYVPFPP
notes: human αS1-casein, residues 16-163; Amplified from pET TS001, which codes for an N-terminal His6 tag; also called pET C1; source: E. coli, purified (NTA column chromatography); not shown: His6, C-terminal, kept

IL-8 secretion of TLR4+ cells after 24 h with 15 nM protein (sandwich ELISA) [1]: 5.2 ng/mL
fluorescence intensity on TLR4+ cells over TLR4- cells (fold) [5]: 2.2 fold
B8: αS1-casein truncated variant C2 (domain or fragment, human, UniProt P47710 16-145, looked up)
chain: RPKLPLRYPERLQNPSESSEPIPLESREEYMNGMNRQRNILREKQTDEIKDTRNESTQNCVVAEPEKMESSISSSSEEMSLSKCAEQFCRLNEYNQLQLQAAHAQEQIRRMNENSHVQVPFQQLNQLAAY
notes: human αS1-casein, residues 16-145; Amplified from pET TS001, which codes for an N-terminal His6 tag; also called pET C2; source: E. coli, purified (NTA column chromatography); not shown: His6, C-terminal, kept
